The source of these data is paper PMC2628294.

Experiment [1] addresses soluble human FcγIIIa receptor (human) (UniProt P08637). Kind of experiment: SPR.
Experiment [2] addresses GlcNAc-containing IgG1-Fc (2) (human). In words: SEC. On the technique in general: In gel filtration, larger molecules generally elute earlier.
Experiment [3] concerns the target PNGase F deglycosylated IgG1-Fc (human). Kind of experiment: SDS-PAGE under non-reducing conditions.
Experiment [4] addresses yeast-expressed recombinant human IgG1-Fc (1) (human). Kind of experiment: SDS-PAGE under non-reducing conditions.
The target is the same in experiment [5]. In words: SEC.

UniProt P08637, sequence (P08637 17-208): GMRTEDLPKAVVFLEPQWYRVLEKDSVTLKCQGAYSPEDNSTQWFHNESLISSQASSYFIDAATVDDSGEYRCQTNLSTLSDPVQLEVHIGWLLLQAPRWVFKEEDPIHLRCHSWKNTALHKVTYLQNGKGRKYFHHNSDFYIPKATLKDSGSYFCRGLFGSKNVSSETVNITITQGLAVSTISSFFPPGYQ

The stoichiometry N is the number of molecules, sites or subunits per partner or assembly. With “GlcNAc-containing IgG1-Fc (2) (domain or fragment)”, the fold less active in binding than the Fc glycoform (4) in experiment [1] is more than 17 fold. The stoichiometry N in experiment [2] was 2.
As to “PNGase F deglycosylated IgG1-Fc (domain or fragment)”, in experiment [3], the stoichiometry N is 2.
Consider “yeast-expressed recombinant human IgG1-Fc (1) (domain or fragment)”, for which the stoichiometry N in experiment [4] and in experiment [5] was 2 throughout.
“IgG1-Fc glycoform (6), Gal2Man3GlcNAc2-IgG1-Fc (domain or fragment)” came in with a fold more active in binding than the CHO-expressed IgG1-Fc in experiment [1] of 1.4 fold.
On the same count and under the same terms, next, “IgG1-Fc glycoform (4), Man3GlcNAc2-IgG1-Fc (domain or fragment)”: 2 fold.
